Results on four molecules are retold here after patent US11098105 (Zymeworks, dated 2021).

For assay [1], the target named is CD16a(158V/V) on NK92 effector cells (UniProt P08637 17-254, limits assumed). As to the kind of experiment: cell-based or functional assay.
In a further assay the target is Human C1q (human, UniProt P02745 23-245; P02746 28-253; P02747 29-245). As to the kind of experiment: cell-based or functional assay.
The target of another assay is T1, FcγRIIaH (UniProt P12318 36-218).
T1 construct: also called 2aH; 2ah
T1 sequence (looked up): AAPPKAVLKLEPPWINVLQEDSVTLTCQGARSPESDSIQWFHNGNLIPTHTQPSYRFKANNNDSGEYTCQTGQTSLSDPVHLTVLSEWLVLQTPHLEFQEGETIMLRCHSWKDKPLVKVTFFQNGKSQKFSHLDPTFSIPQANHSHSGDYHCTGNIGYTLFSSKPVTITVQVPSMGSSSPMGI
As to the kind of experiment: SPR, antibody captured by goat anti-IgG, FcγR injected. On the technique in general: In SPR one partner is held on a chip, and binding of the other changes the refractive index at the surface.

The next assay deals with T2, FcγRIIaR (UniProt P12318 36-218).
T2 construct: also called 2aR; 2ar
T2 sequence (looked up): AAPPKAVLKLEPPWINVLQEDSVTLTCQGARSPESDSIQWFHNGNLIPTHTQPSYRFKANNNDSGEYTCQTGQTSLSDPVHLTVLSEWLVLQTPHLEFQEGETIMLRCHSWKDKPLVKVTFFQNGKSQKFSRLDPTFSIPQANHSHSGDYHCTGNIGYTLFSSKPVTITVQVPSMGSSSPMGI
The assay is described as above.

In the next assay the target is T3, FcγRIIb (UniProt P31994 46-217).
T3 construct: also called 2b; CD32b
T3 sequence (looked up): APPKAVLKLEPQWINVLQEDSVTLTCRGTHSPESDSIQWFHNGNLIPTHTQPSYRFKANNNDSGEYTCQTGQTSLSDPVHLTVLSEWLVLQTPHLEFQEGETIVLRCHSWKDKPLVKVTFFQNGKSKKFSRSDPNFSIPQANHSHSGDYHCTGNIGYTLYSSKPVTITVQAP
The description is as above.

The next assay concerns the target T4, FcγRIIIaF (UniProt P08637 17-208).
T4 construct: also called 3aF; 3af
The assay is described as above.

Human C1q, sequence (P02745 23-245 limits assumed, chain 1 of 3): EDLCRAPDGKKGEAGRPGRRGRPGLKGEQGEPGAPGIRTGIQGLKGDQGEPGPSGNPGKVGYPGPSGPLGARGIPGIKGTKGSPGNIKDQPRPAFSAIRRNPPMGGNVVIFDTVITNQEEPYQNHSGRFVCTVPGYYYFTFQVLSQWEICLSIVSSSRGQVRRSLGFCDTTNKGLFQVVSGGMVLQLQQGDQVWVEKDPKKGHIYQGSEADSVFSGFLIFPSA
Human C1q, sequence (P02746 28-253 limits assumed, chain 2 of 3): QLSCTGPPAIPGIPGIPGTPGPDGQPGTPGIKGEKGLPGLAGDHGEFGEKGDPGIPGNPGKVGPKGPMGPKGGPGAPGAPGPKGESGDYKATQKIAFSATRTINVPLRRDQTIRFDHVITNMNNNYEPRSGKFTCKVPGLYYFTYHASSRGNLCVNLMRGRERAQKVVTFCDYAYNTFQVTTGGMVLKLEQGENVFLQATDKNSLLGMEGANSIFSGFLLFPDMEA
Human C1q, sequence (P02747 29-245 limits assumed, chain 3 of 3): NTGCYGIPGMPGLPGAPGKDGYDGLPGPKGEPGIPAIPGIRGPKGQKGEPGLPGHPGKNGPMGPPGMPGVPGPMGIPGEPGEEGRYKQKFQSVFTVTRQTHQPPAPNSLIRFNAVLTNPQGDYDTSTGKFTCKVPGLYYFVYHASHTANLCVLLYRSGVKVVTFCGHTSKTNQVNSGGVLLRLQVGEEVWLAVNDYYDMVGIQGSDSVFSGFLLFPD

B1: AAC10, rituximab-based asymmetric antibody construct (antibody, human IgG1, kappa)
heavy 1: QVQLQQPGAELVKPGASVKMSCKASGYTFTSYNMHWVKQTPGRGLEWIGAIYPGNGDTSYNQKFKGKATLTADKSSSTAYMQLSSLTSEDSAVYYCARSTYYGGDWYFNVWGAGTTVTVSAASTKGPSVFPLAPSSKSTSGGTAALGCLVKDYFPEPVTVSWNSGALTSGVHTFPAVLQSSGLYSLSSVVTVPSSSLGTQTYICNVNHKPSNTKVDKKVEPKSCDKTHTCPPCPAPEDEGGPSVFLFPPKPKDTLMISRTPEVTCVVVSVSHEDPEVKFNWYVDGVEVHNAKTKPREEQYNSTYRVVSVLTVLHQDWLNGKEYKCKVSNKALPAPIEKTISKAKGQPREPQVYVYPPSRDELTKNQVSLTCLVKGFYPSDIAVEWESNGQPENNYKTTPPVLDSDGSFALVSKLTVDKSRWQQGNVFSCSVMHEALHNHYTQKSLSLSPGK
heavy 2: QVQLQQPGAELVKPGASVKMSCKASGYTFTSYNMHWVKQTPGRGLEWIGAIYPGNGDTSYNQKFKGKATLTADKSSSTAYMQLSSLTSEDSAVYYCARSTYYGGDWYFNVWGAGTTVTVSAASTKGPSVFPLAPSSKSTSGGTAALGCLVKDYFPEPVTVSWNSGALTSGVHTFPAVLQSSGLYSLSSVVTVPSSSLGTQTYICNVNHKPSNTKVDKKVEPKSCDKTHTCPPCPAPKRRGGPSVFLFPPKPKDTLMISRTPEVTCVVVSVSHEDPEVKFNWYVDGVEVHNAKTKPREEQYNSTYRVVSVLTVLHQDWLNGKEYKCKVSNKALPAPIEKTISKAKGQPREPQVYVLPPSRDELTKNQVSLLCLVKGFYPSDIAVEWESNGQPENNYLTWPPVLDSDGSFFLYSKLTVDKSRWQQGNVFSCSVMHEALHNHYTQKSLSLSPGK
light: QIVLSQSPAILSASPGEKVTMTCRASSSVSYIHWFQQKPGSSPKPWIYATSNLASGVPVRFSGSGSGTSYSLTISRVEAEDAATYYCQQWTSNPPTFGGGTKLEIKRTVAAPSVFIFPPSDEQLKSGTASVVCLLNNFYPREAKVQWKVDNALQSGNSQESVTEQDSKDSTYSLSSTLTLSKADYEKHKVYACEVTHQGLSSPVTKSFNRGEC
Consider B1, for which the “ADCC EC50 [nM], Daudi cells, NK92/CD16a(158V/V) effector cells” value in assay [1] was 7.4 nM. Besides, the “ADCC Maximum Lysis, Daudi cells, NK92/CD16a(158V/V) effector cells” value in assay [1] amounted to 45 % cell lysis. For the same molecule, in the assay with Human C1q, the “CDC EC50 [nM], Daudi cells, 10% normal human serum” value (shortened to “CDC EC50 … 10% normal human serum”) was 82.8 nM. In the assay with Human C1q, the “CDC Maximum Lysis, Daudi cells, 10% normal human serum” value was 79 % cell lysis. Besides, the binding result with FcγRIIaH, with FcγRIIaR, with FcγRIIb and with FcγRIIIaF was “no binding” throughout.

B2: AAC15, rituximab-based asymmetric antibody construct (antibody, human IgG1, kappa)
heavy 1: QVQLQQPGAELVKPGASVKMSCKASGYTFTSYNMHWVKQTPGRGLEWIGAIYPGNGDTSYNQKFKGKATLTADKSSSTAYMQLSSLTSEDSAVYYCARSTYYGGDWYFNVWGAGTTVTVSAASTKGPSVFPLAPSSKSTSGGTAALGCLVKDYFPEPVTVSWNSGALTSGVHTFPAVLQSSGLYSLSSVVTVPSSSLGTQTYICNVNHKPSNTKVDKKVEPKSCDKTHTCPPCPAPEDEGGPSVFLFPPKPKDTLMISRTPEVTCVVVSVSHKDPEVKFNWYVDGVEVHNAKTKPREEQYNSTYRVVSVLTVLHQDWLNGKEYKCEVSNKALPAPIKKTISKAKGQPREPQVYVYPPSRDELTKNQVSLTCLVKGFYPSDIAVEWESNGQPENNYKTTPPVLDSDGSFALVSKLTVDKSRWQQGNVFSCSVMHEALHNHYTQKSLSLSPGK
heavy 2: QVQLQQPGAELVKPGASVKMSCKASGYTFTSYNMHWVKQTPGRGLEWIGAIYPGNGDTSYNQKFKGKATLTADKSSSTAYMQLSSLTSEDSAVYYCARSTYYGGDWYFNVWGAGTTVTVSAASTKGPSVFPLAPSSKSTSGGTAALGCLVKDYFPEPVTVSWNSGALTSGVHTFPAVLQSSGLYSLSSVVTVPSSSLGTQTYICNVNHKPSNTKVDKKVEPKSCDKTHTCPPCPAPKRRGGPSVFLFPPKPKDTLMISRTPEVTCVVVSVSHKDPEVKFNWYVDGVEVHNAKTKPREEQYNSTYRVVSVLTVLHQDWLNGKEYKCEVSNKALPAPIKKTISKAKGQPREPQVYVLPPSRDELTKNQVSLLCLVKGFYPSDIAVEWESNGQPENNYLTWPPVLDSDGSFFLYSKLTVDKSRWQQGNVFSCSVMHEALHNHYTQKSLSLSPGK
light: QIVLSQSPAILSASPGEKVTMTCRASSSVSYIHWFQQKPGSSPKPWIYATSNLASGVPVRFSGSGSGTSYSLTISRVEAEDAATYYCQQWTSNPPTFGGGTKLEIKRTVAAPSVFIFPPSDEQLKSGTASVVCLLNNFYPREAKVQWKVDNALQSGNSQESVTEQDSKDSTYSLSSTLTLSKADYEKHKVYACEVTHQGLSSPVTKSFNRGEC
Turning to B2, the “CDC EC50 … 10% normal human serum” value with Human C1q was roughly 55.9 nM. Besides, the “CDC Maximum Lysis, Daudi cells, 10% normal human serum” value with Human C1q was 43 % cell lysis. The binding result in the assay with FcγRIIaH, with FcγRIIaR, with FcγRIIb and with FcγRIIIaF was “no binding” each time.

B3: AAC13, rituximab-based asymmetric antibody construct (antibody, human IgG1, kappa)
heavy 1: QVQLQQPGAELVKPGASVKMSCKASGYTFTSYNMHWVKQTPGRGLEWIGAIYPGNGDTSYNQKFKGKATLTADKSSSTAYMQLSSLTSEDSAVYYCARSTYYGGDWYFNVWGAGTTVTVSAASTKGPSVFPLAPSSKSTSGGTAALGCLVKDYFPEPVTVSWNSGALTSGVHTFPAVLQSSGLYSLSSVVTVPSSSLGTQTYICNVNHKPSNTKVDKKVEPKSCDKTHTCPPCPAPEDEGGPSVFLFPPKPKDTLMISRTPEVTCVVVDVSHEDPEVKFNWYVDGVEVHNAKTKPREEQYNSTYRVVSVLTVLHQDWLNGKEYKCKVSNKALWAPIEKTISKAKGQPREPQVYVYPPSRDELTKNQVSLTCLVKGFYPSDIAVEWESNGQPENNYKTTPPVLDSDGSFALVSKLTVDKSRWQQGNVFSCSVMHEALHNHYTQKSLSLSPGK
heavy 2: QVQLQQPGAELVKPGASVKMSCKASGYTFTSYNMHWVKQTPGRGLEWIGAIYPGNGDTSYNQKFKGKATLTADKSSSTAYMQLSSLTSEDSAVYYCARSTYYGGDWYFNVWGAGTTVTVSAASTKGPSVFPLAPSSKSTSGGTAALGCLVKDYFPEPVTVSWNSGALTSGVHTFPAVLQSSGLYSLSSVVTVPSSSLGTQTYICNVNHKPSNTKVDKKVEPKSCDKTHTCPPCPAPKRRGGPSVFLFPPKPKDTLMISRTPEVTCVVVDVSHEDPEVKFNWYVDGVEVHNAKTKPREEQYNSTYRVVSVLTVLHQDWLNGKEYKCKVSNKALWAPIEKTISKAKGQPREPQVYVLPPSRDELTKNQVSLLCLVKGFYPSDIAVEWESNGQPENNYLTWPPVLDSDGSFFLYSKLTVDKSRWQQGNVFSCSVMHEALHNHYTQKSLSLSPGK
light: QIVLSQSPAILSASPGEKVTMTCRASSSVSYIHWFQQKPGSSPKPWIYATSNLASGVPVRFSGSGSGTSYSLTISRVEAEDAATYYCQQWTSNPPTFGGGTKLEIKRTVAAPSVFIFPPSDEQLKSGTASVVCLLNNFYPREAKVQWKVDNALQSGNSQESVTEQDSKDSTYSLSSTLTLSKADYEKHKVYACEVTHQGLSSPVTKSFNRGEC
Regarding B3, the binding result in the assay with FcγRIIaH, with FcγRIIaR, with FcγRIIb and with FcγRIIIaF was “no binding” in each case.

B4: AAC14, rituximab-based asymmetric antibody construct (antibody, human IgG1, kappa)
heavy 1: QVQLQQPGAELVKPGASVKMSCKASGYTFTSYNMHWVKQTPGRGLEWIGAIYPGNGDTSYNQKFKGKATLTADKSSSTAYMQLSSLTSEDSAVYYCARSTYYGGDWYFNVWGAGTTVTVSAASTKGPSVFPLAPSSKSTSGGTAALGCLVKDYFPEPVTVSWNSGALTSGVHTFPAVLQSSGLYSLSSVVTVPSSSLGTQTYICNVNHKPSNTKVDKKVEPKSCDKTHTCPPCPAPEDEGGPSVFLFPPKPKDTLMISRTPEVTCVVVSVSHKDPEVKFNWYVDGVEVHNAKTKPREEQYNSTYRVVSVLTVLHQDWLNGKEYKCAVSNKALPAPIEKTISKAKGQPREPQVYVYPPSRDELTKNQVSLTCLVKGFYPSDIAVEWESNGQPENNYKTTPPVLDSDGSFALVSKLTVDKSRWQQGNVFSCSVMHEALHNHYTQKSLSLSPGK
heavy 2: QVQLQQPGAELVKPGASVKMSCKASGYTFTSYNMHWVKQTPGRGLEWIGAIYPGNGDTSYNQKFKGKATLTADKSSSTAYMQLSSLTSEDSAVYYCARSTYYGGDWYFNVWGAGTTVTVSAASTKGPSVFPLAPSSKSTSGGTAALGCLVKDYFPEPVTVSWNSGALTSGVHTFPAVLQSSGLYSLSSVVTVPSSSLGTQTYICNVNHKPSNTKVDKKVEPKSCDKTHTCPPCPAPKRRGGPSVFLFPPKPKDTLMISRTPEVTCVVVSVSHKDPEVKFNWYVDGVEVHNAKTKPREEQYNSTYRVVSVLTVLHQDWLNGKEYKCAVSNKALPAPIEKTISKAKGQPREPQVYVLPPSRDELTKNQVSLLCLVKGFYPSDIAVEWESNGQPENNYLTWPPVLDSDGSFFLYSKLTVDKSRWQQGNVFSCSVMHEALHNHYTQKSLSLSPGK
light: QIVLSQSPAILSASPGEKVTMTCRASSSVSYIHWFQQKPGSSPKPWIYATSNLASGVPVRFSGSGSGTSYSLTISRVEAEDAATYYCQQWTSNPPTFGGGTKLEIKRTVAAPSVFIFPPSDEQLKSGTASVVCLLNNFYPREAKVQWKVDNALQSGNSQESVTEQDSKDSTYSLSSTLTLSKADYEKHKVYACEVTHQGLSSPVTKSFNRGEC
On to B4, for which the “CDC EC50 … 10% normal human serum” value with Human C1q worked out at 69.7 nM. In addition, the “CDC Maximum Lysis, Daudi cells, 10% normal human serum” value with Human C1q was 72 % cell lysis. Moreover, the binding result with FcγRIIaH, with FcγRIIaR, in the assay with FcγRIIb and in the assay with FcγRIIIaF was “no binding” in each case.
